The target in assay [1] is T1, rabbit α-crystallin A (CRYAA), native protein in rabbit intraocular fluid (rabbit, UniProt P02493 1-173, limits assumed).
T1 construct: Analyte of the lateral flow assay in rabbit samples; also called Crystallin-αA; αA-Crystallin
T1 sequence (looked up): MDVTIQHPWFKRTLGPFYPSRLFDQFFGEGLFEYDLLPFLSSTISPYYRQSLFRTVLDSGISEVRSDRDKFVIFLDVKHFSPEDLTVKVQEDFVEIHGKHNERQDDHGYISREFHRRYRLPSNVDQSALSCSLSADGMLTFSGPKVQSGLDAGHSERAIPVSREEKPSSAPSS
As to the kind of experiment: lateral flow sandwich strip, MAB1601-AuNP conjugate with MAB1301 test line; swab of rabbit eye, Arm 3: 3 mm full-thickness laceration, AC/limbus, no confounder. As for the experimental part:
(§1) The expected results were that either one, or two, distinct red lines would form on the readout area of the test strip. The bottom half of the readout area on the nitrocellulose strip was expected to always show a red line (control), while appearance of the second line confirmed a positive result. The results were documented and whole test strip was imaged after removing the top of its plastic casing. The test strips were labelled and shipped on cold packs. For the second sample, 10-30 μL (as much as possible up to 30 μL) of the remaining ocular film was drawn by pipette and deposited in a microcentrifuge tube labeled with identities corresponding to the test strips. To this liquid sample, an equal volume of RNAlater solution was added and the sample was stored at −80° C. until shipment to the client on dry ice. Following sedation, rabbits were euthanized by intravenous barbiturate overdose. Euthasol® was delivered via the marginal ear vein at a concentration of 390 mg/ml, and a dose of 87 mg/kg. Following confirmation of euthanasia, whole corneas with sclera rims were collected and immediately placed in PBS. The medium was then exchanged for freshly made 4% PFA and tissue was fixed at room temperature for 23 hours. The tissue was then embedded in paraffin and shipped for further analysis. […]

Assay [2] deals with T1, rabbit α-crystallin A (CRYAA), native …. As to the kind of experiment: lateral flow sandwich strip, MAB1601-AuNP conjugate with MAB1301 test line; swab of rabbit eye, Arm 9: 1 mm full-thickness puncture, peripheral cornea, no confounder. The protocol: as §1

Experimental findings from patent US20250085298A1 (TRITON SYSTEMS, published 2025) are described below.

B1: MAB1601 (Conjugate Ab; target recognition element) (antibody, mouse IgG1, kappa, V domains shown)
VH: EVKLQESGPSLVKPSQTLSLTCSVTGDSITSGYWNWIRKFPGNKLEYMGYISYSGSTYFNPSLKSRISITRDTSKNQYYLQLNSVTTEDTATYYCSTGFAYWGQGTLVTVSA
VL: DIVMSQSPSSLAVSVGEKVIMRCNSSQSLLYSGNRENYLAWYQQKPGQSPNLLIYWASRRASGVPDRFAGGGSGTDFTLTISSVKAEDLAVYYCQHYYNYPLTFGAGTRLELKR
notes: Custom anti-CRYAA monoclonal antibody made in mice against the modified C-terminal CRYAA immunogen; In the assay its amines were coupled to carboxyl gold nanoparticles by EDC/sNHS chemistry; also called conjugate antibody; upstream target recognition element
For the molecule B1, the binding result in assay [1] is “binds”.

B2: MAB1301 (Test Line Ab; test element) (antibody, mouse IgG1, kappa, V domains shown)
VH: EVKLQESGPSLVRPGASVKMSCKASGYTFTSYNMHWVKQTPRQGLEWIGAIYPGNGDTSYNQKFKGKATLTVDKSSSTAYMQLSSLTSEDSAVYFCARVVYYSNSYWYFDVWGTGTTVTVSA
VL: DIVMSQSPSSLAVSVGEKVIMRCNSSQSLLYSGNRENYLAWYQQKPGQSPNLLIYWASRRASGVPDRFAGSGSGTDFTLTISSVKAEDLAVYYCQHYYNYPLTFGAGTRLELKR
notes: Custom anti-CRYAA monoclonal antibody made in mice; It was immobilised on the nitrocellulose test line; also called MAB1301 T-line; test-line antibody
For the molecule B2, the binding result in assay [2] was “binds”.
